Data from patent US20260139048A1 (NANJING LEGEND BIOTECH, published 2026).
Like-named read-outs stand apart in the source and are kept apart here.

T1: His-tagged human TIGIT (human, UniProt Q495A1 22-141)
T1 construct: SPR analyte; also called human TIGIT protein; not shown: His tag
T1 sequence: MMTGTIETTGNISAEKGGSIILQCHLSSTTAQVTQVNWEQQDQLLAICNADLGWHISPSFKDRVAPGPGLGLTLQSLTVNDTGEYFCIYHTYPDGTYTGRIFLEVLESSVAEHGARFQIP

T2: TIGIT on TIGIT-over expressing NFAT-Luc/Jurkat effector cells (GenScript reporter cell line) (UniProt Q495A1 22-244, limits assumed)
T2 sequence (looked up): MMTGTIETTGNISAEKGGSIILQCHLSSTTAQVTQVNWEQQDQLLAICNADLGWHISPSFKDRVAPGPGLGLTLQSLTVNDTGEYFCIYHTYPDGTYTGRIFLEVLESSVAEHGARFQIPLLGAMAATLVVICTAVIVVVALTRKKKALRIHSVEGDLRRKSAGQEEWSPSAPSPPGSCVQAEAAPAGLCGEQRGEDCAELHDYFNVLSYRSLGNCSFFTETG

T3: human TIGIT expressed on CHO-K1 cells (human, UniProt Q495A1 22-244)
T3 construct: whole, on cells; also called human TIGIT-CHO-K1 cells; human TIGIT over-expressing cell line
T3 sequence (looked up): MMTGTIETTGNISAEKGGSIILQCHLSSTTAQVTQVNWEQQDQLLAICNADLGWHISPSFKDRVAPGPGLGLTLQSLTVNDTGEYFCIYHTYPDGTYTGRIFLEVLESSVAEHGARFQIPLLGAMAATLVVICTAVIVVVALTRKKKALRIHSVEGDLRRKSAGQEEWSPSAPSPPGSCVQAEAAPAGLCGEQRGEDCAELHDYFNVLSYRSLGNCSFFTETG


Columns and labels:
His-tagged human TIGIT [1] = molecular target: T1, His-tagged human TIGIT; experiment: SPR experiment 3, IgG from HEK293 supernatant captured
[2] = molecular target: T2, TIGIT on TIGIT-over expressing …; experiment: cell-based or functional assay
[3] = molecular target: T3, human TIGIT expressed on CHO-K1 cells; experiment: flow cytometry on CHO-K1 cells expressing human TIGIT
[4] = molecular target: T4, cynomolgus TIGIT expressed on CHO-K1 cells (cynomolgus, UniProt A0A7N9I9V4 89-312); experiment: flow cytometry on CHO-K1 cells expressing cynomolgus TIGIT
T4 construct: whole, on cells; also called cynomolgus TIGIT over-expressing cell line
T4 sequence (A0A7N9I9V4 entry or part of it): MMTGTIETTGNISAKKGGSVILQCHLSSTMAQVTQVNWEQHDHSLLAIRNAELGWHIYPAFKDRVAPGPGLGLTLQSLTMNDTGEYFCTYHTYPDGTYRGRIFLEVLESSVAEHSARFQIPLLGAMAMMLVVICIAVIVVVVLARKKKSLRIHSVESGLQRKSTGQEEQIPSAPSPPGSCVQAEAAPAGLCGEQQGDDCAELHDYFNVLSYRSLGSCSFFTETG

His-tagged human TIGIT [5] = molecular target: T1, His-tagged human TIGIT; experiment: SPR (Biacore T200), antibody captured, His-tagged TIGIT analyte
[6] = molecular target: T5, His-tagged cynomolgus TIGIT (cynomolgus, UniProt A0A7N9I9V4 89-209); experiment: as above
T5 construct: SPR analyte; also called cynomolgus TIGIT protein; not shown: His tag
T5 sequence (A0A7N9I9V4 entry or part of it): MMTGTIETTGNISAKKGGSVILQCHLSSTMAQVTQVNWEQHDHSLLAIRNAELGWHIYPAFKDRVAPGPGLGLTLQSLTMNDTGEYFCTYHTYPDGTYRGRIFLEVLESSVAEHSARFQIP

[7] = molecular target: T3, human TIGIT expressed on CHO-K1 cells; experiment: flow cytometry competition: biotinylated CD155-Fc on human TIGIT-CHO-K1 cells
[8] = molecular target: T2, TIGIT on TIGIT-over expressing …; experiment: cell-based or functional assay; remark: listed apart in the source
[9] = molecular target: T3, human TIGIT expressed on CHO-K1 cells; experiment: flow cytometry on CHO-K1 cells expressing human TIGIT; remark: listed apart in the source
[10] = molecular target: T4, cynomolgus TIGIT expressed on CHO-K1 …; experiment: flow cytometry on CHO-K1 cells expressing cynomolgus TIGIT; remark: listed apart in the source
His-tagged human TIGIT [11] = molecular target: T1, His-tagged human TIGIT; experiment: SPR (Biacore T200), antibody captured, His-tagged TIGIT analyte; remark: listed apart in the source
[12] = molecular target: T5, His-tagged cynomolgus TIGIT; experiment: as above; remark: listed apart in the source
[13] = molecular target: T3, human TIGIT expressed on CHO-K1 cells; experiment: flow cytometry competition: biotinylated CD155-Fc on human TIGIT-CHO-K1 cells; remark: listed apart in the source

Bottom (RLU) [2] [RLU] | EC50 [2] [nM] | Top (RLU) [2] [RLU] | EC50 [3] [nM] | EC50 [4] [nM] | Kd (His-tagged human TIGIT [5]) [nM] | koff (His-tagged human TIGIT [5]) [s⁻¹] | kon (His-tagged human TIGIT [5]) [M⁻¹ s⁻¹] | Kd [6] [nM] | koff [6] [s⁻¹] | kon [6] [M⁻¹ s⁻¹] | IC50 [7] [nM] | Binder | further results
9300 | > 100 | 17000 | 0.4 | 0.81 | 0.63 | 0.0012 | 2e+06 | 47 | 0.063 | 1.3e+06 | 0.53 | TIGIT-87 chimeric antibody (antibody, human IgG1, kappa, V domains shown, Full-length chimeric IgG1 kappa) VH: EVKLVESGPELVKPGASMKISCKASGYSFTGYTMNWVKQSHGKNLEWIGLINPYNGGTSYNQKFKGKATLTVDKSSSTAYMELLSLTSEDSAVYYCARYANRFENWFAYWGQGTLVTVSS VL: DIQMTQSPASLSASVGETVTITCRASENIYSYLAWYQQKQGKSPQLLVYNAKTLAEGVPSRFSGSGSGTQFSLKINSLQPEDFGSYYCQHHYGTPWTFGGGTKLEIKR | 
4520 | > 100 | 11700 | 0.55 |  | 6.6 | 0.014 | 2.2e+06 | 29 | 0.012 | 420000 | 0.82 | TIGIT-100 chimeric antibody (antibody, human IgG1, kappa, V domains shown, Full-length chimeric IgG1 kappa) VH: QVQLQQPGPELVKPGASVKISCKASGYSFTDYNMNWVKQSNGKSLEWIGVINPNSGTDNYNQKFKGKATLTVDQSSSTAYMQLNSLTSEDSAVYFCARGVYFGNYFDSWGQGTTLTVSS VL: DIVMTQSPASLSASVGETVTITCRASENIYSSLAWYQQKQGKSPQLLVFNAKTLTEGVPSRFSGSGSGTQFSLKINSLQPEDFGSYYCQHHYGAPWTFGGGTKLEIKR | 
9960 | 92.8 | 59800 | 0.51 | 0.74 | 1.6 | 0.0019 | 1.2e+06 | 7.7 | 0.0075 | 980000 | 0.72 | TIGIT-94 chimeric antibody (antibody, human IgG1, kappa, V domains shown, Full-length chimeric IgG1 kappa) VH: EVKLVESGGGLVKPGGSLKLSCAASGFTFSTYTMSWVRQTPEKRLEWVATISSGGTYTHYPDSVKGRFTISRDNAKNTLYLQMSSLKSEDTAMYYCTRWFLSLYAMDYWGQGTSVTVSS VL: DIVMTQSTSSLSASLGDRVTISCRASQDINNFLNWYQQKPAGTVDLLIYYTSRLHSGVPSRFSGSGSGTDYSLTISNLDQEDIATYFCQQGNTFPYTFGGGTRLEIKR | 

Further lines, the binder ahead of its results:

Binder | Bottom (RLU) [2] [RLU] | EC50 [2] [nM] | Top (RLU) [2] [RLU] | EC50 [3] [nM] | EC50 [4] [nM] | Kd (His-tagged human TIGIT [5]) [nM] | koff (His-tagged human TIGIT [5]) [s⁻¹] | kon (His-tagged human TIGIT [5]) [M⁻¹ s⁻¹] | Kd [6] [nM] | koff [6] [s⁻¹] | kon [6] [M⁻¹ s⁻¹] | IC50 [7] [nM] | further results
reshaped TIGIT-3 antibody 3VH3 + 3VL1.M3 (antibody, V domains shown, Full-length IgG, tested as HEK293 supernatant) VH: EVQLVESGGGLVQPGGSLRLSCAASGFTFSSYGMSWVRQAPGKGLELVATIKSDGGSTNLPDSVKGRFTISRDNSKNTLYLQMNSLRAEDTAVYYCVRGYFDYWGQGTTVTVSS VL: DIQMTQSPSSLSASVGDRVTITCKASQDVKTAVAWYQQKPGKVPKLLIYWASTRHSGVPSRFSGSGSGTDFTLTISSLQPEDVATYYCQQYYSTPYTFGGGTKVEIK |  |  |  |  |  |  |  |  |  |  |  |  | Kd (His-tagged human TIGIT [1]): 46 nM; koff (His-tagged human TIGIT [1]): 0.0089 s⁻¹; kon (His-tagged human TIGIT [1]): 190000 M⁻¹ s⁻¹
reshaped TIGIT-3 antibody 3VH3 + 3VL1.M1 (antibody, V domains shown, Full-length IgG, tested as HEK293 supernatant) VH: EVQLVESGGGLVQPGGSLRLSCAASGFTFSSYGMSWVRQAPGKGLELVATIKSDGGSTNLPDSVKGRFTISRDNSKNTLYLQMNSLRAEDTAVYYCVRGYFDYWGQGTTVTVSS VL: DIQMTQSPSSLSASVGDRVTITCRASQDIKTALAWYQQKPGKVPKLLIYWSSTRHTGVPSRFSGSGSGTDFTLTISSLQPEDVATYYCQQYYSTPYTFGGGTKVEIK |  |  |  |  |  |  |  |  |  |  |  |  | Kd (His-tagged human TIGIT [1]): 17 nM; koff (His-tagged human TIGIT [1]): 0.0038 s⁻¹; kon (His-tagged human TIGIT [1]): 230000 M⁻¹ s⁻¹
reshaped TIGIT-3 antibody 3VH3 + 3VL1.M4 (antibody, V domains shown, Full-length IgG, tested as HEK293 supernatant) VH: EVQLVESGGGLVQPGGSLRLSCAASGFTFSSYGMSWVRQAPGKGLELVATIKSDGGSTNLPDSVKGRFTISRDNSKNTLYLQMNSLRAEDTAVYYCVRGYFDYWGQGTTVTVSS VL: DIQMTQSPSSLSASVGDRVTITCKASQDVKTAVAWYQQKPGKVPKLLIYWASTRQSGVPSRFSGSGSGTDFTLTISSLQPEDVATYYCQQYYSTPYTFGGGTKVEIK |  |  |  |  |  |  |  |  |  |  |  |  | Kd (His-tagged human TIGIT [1]): 55 nM; koff (His-tagged human TIGIT [1]): 0.012 s⁻¹; kon (His-tagged human TIGIT [1]): 230000 M⁻¹ s⁻¹
TIGIT-63 chimeric antibody (antibody, human IgG1, kappa, V domains shown, Full-length chimeric IgG1 kappa) VH: DVQLVESGGGLVQPGGSLSLSCAASGFTFTDYYMNWVRQPPGKALEWLGFIRNKANGYTTEYSASVKGRFTISRDNSQSILYLQMNALRAEDSATYYCARSTAWYFDVWGTGTTLTVSS VL: DIQMTQSPASLSASVGGTVTITCRASEHIYSYLAWYQQKQGKSPQLLVYNAKTLAEGVPSRFSGSGSGTQFSLKINSLQPKDFGSYYCQHHYGNPLTFGAGTKLELKR | 11200 | 46.8 | 28700 | 1.12 | 1.92 | 2.5 | 0.00062 | 250000 | 3.4 | 0.00049 | 140000 | 2.32 | 
TIGIT-15 chimeric antibody (antibody, human IgG1, kappa, V domains shown, Full-length chimeric IgG1 kappa) VH: DVQLVESGGGLVQPGGSLKLSCAASGFTFSSYGMSWVRQTPDRRLELVATINNNGGSTYYPDSVKGRFTISRDNARNTLYLQMSSLKSEDTAMYYCATRTGTEILGFDFWGQGTTLTVSS VL: DIVLTQSHKFMSTSLGDRVSITCKASQDVSTAVAWYQQKPGQSPKLLIYWASSRHTGVPDRFTGSRSGPDYTLTISSVQAEDLALYYCQQQYSTPWTFGGGTKLEIKR | 7720 | 17.4 | 51900 | 1.03 | 3.53 | 0.19 | 0.00016 | 860000 | 1.1 | 0.0002 | 180000 | 1.07 | 
TIGIT-18 chimeric antibody (antibody, human IgG1, kappa, V domains shown, Full-length chimeric IgG1 kappa) VH: QVQLQQPGAELVRPGASVKLSCKASGYSFTSYWMNWVKQRPGQGHEWIGMIHLSNSETRLNQNFLDKATLTVDKSSSTVYLQLSSPTSEDSAVYYCARERDYYGSSYFDYWGQGTTLTVSS VL: DIVMTQSPASLVVSLGQRATISCRTSQSVSTSSYSYMHWYQQKPGQPPKLLIKNASNLESGVPARFSASGSGTDFTLNIHPVEEEDAATYYCQHSWEIPRTFGGGTKLEIKR | 10400 | 31.3 | 50600 | 0.76 | 1.45 | 0.22 | 9.5e-05 | 430000 | 4.4 | 0.0011 | 260000 | 1.23 | 
TIGIT-52 chimeric antibody (antibody, human IgG1, kappa, V domains shown, Full-length chimeric IgG1 kappa) VH: EVQLVESGGGLVEPGGSLTLSCVASGFTFSSFAMSWVRQTPEKRLEWVATISNGGSYTYYPDTVKGRFTISRDNAKNTLFLQMSSLRSEDTAMYYCARPYYGTTYGYYFDFWGQGTTLTVSS VL: QIVLTQSPASLAVSLGQRATISCRASESVDRNGNSFMHWYQQKPGQPPKLLIYLASNLESGVPARFSGSGSRTDFTLTIDPVEADDAATYYCQQNNEDPLTFGAGTKLELKR | 11800 | > 100 | 14200 | 8.43 | 7.68 | 0.17 | 7.4e-05 | 440000 | 0.28 | 6.1e-05 | 220000 | 13.9 | 
Hu1217-2-2 (anti-TIGIT positive control antibody) (antibody, V domains shown) VH: EVQLVESGGGLVQPGGSLRLSCAASGFTFSDYYMYWVRQAPGKGLEWVAYITKGGGSTYYPDSVKGRFTISRDNAKNTLYLQMNSLRAEDTAVYYCARQTNYDFTMDYWGQGTLVTVSS VL: EIVMTQSPATLSVSPGERATLSCKASQDVGTSVAWYQQKPGQAPRLLIYWASARHTGIPARFSGSGSGTEFTLTISSLQSEDFAVYYCQQYSSYPLTFGGGTKVEIK | 10500 | 15.6 | 51700 | 0.46 |  | 0.11 | 0.00013 | 1.2e+06 | 280 | 0.044 | 160000 | 0.81 | Bottom (RLU) [8]: 52900 RLU; EC50 [8]: 11.1 nM; Top (RLU) [8]: 163000 RLU; EC50 [9]: 0.65 nM; EC50 [10]: 43 nM; Kd (His-tagged human TIGIT [11]): 0.051 nM; koff (His-tagged human TIGIT [11]): 5.1e-05 s⁻¹; kon (His-tagged human TIGIT [11]): 1e+06 M⁻¹ s⁻¹; Kd [12]: 470 nM; koff [12]: 0.063 s⁻¹; kon [12]: 130000 M⁻¹ s⁻¹; IC50 [13]: 0.62 nM
